The values below come from patent publication US9045765B2, “EPSP synthase genes conferring herbicide resistance” (priority 2006, dated 2015).

Data set [1] relates to GRG31 EPSP synthase enzymatic activity. The experiment in a line: Thermal stability of GRG31 enzymatic activity at 37° C. (AMPLEX Red assay, 2 mM glyphosate). It counts as biochemical, Sphingobacterium multivorum/faecium. On the procedure: Following IPTG induction, the GRG31 protein was purified to homogeneity by standard methods. To measure enzymatic activity, the purified GRG31 enzyme was diluted to an appropriate assay concentration in buffer containing HEPES (50 mM, pH 7) and 50 mM KCl, and then incubated at 37° C. for 0, 2, 6 or 22 hours. A control sample was incubated alongside at 4° C. At each timepoint, an aliquot was removed from each sample and enzymatic assays were carried out in a final volume of 50 μl containing 0.5 mM shikimate-3-phosphate, 200 uM phosphoenolpyruvate (PEP), 1 U/ml xanthine oxidase, 2 U/ml nucleoside phosphorylase, 2.25 mM inosine, 1 U/ml horseradish peroxidase, 2 mM glyphosate, 50 mM HEPES/KOH pH 7.0, 100 mM KCl, and AMPLEX® Red (Invitrogen) according to the manufacturer's instructions. Assays were started by adding shikimate-3-phosphate. EPSP synthase activity was measured using a Spectramax Gemini XPS fluorescence spectrometer (Molecular Dynamics, excitation: 555 nm; emission: 590 nm). EPSP synthase thermal stability was calculated as the percentage of enzymatic activity at each timepoint at 37° C. relative to enzymatic activity in the control sample incubated alongside at 4° C. (Table 6).

The test system is the same in data set [2]. The experiment in a line: Temperature optimum of GRG31 enzymatic activity (phosphate release, AMPLEX Red fluorescence). It counts as biochemical, Sphingobacterium multivorum/faecium. On the procedure: Following IPTG induction, the GRG31 protein was purified to homogeneity by standard methods. […] Following incubation, the enzyme was heated to 90° C. for 1 minute to denature the enzyme, and then cooled to 4° C. The phosphate generated by each reaction was then added to a second assay containing inosine, purine nucleoside phosphorylase, xanthine oxidase, horseradish peroxidase, and the fluorescent substrate AMPLEX® Red (U.S. Patent Application No. 60/741,166, filed Dec. 1, 2005). Following incubation for 15 minutes at room temperature, fluorescent product was quantified using a Gemini XPS spectrofluorometer (Molecular Devices Corporation, Sunnyvale, Calif.). EPSP synthase product formation was measured, and is expressed in Table 5 as a percentage of maximal activity.

B1: GRG31: glyphosate-resistant EPSP synthase, predicted translation product of grg31, from strain ATX21318 (protein)
chain: MNQQVITLTHPSKKIQGTVQLTGSKSESNRALIIQSLSKGQVEIANLSEAADTVTLNRVLQIASDPKPGFNTIDIGPAGTAMRFLTAYLNLVKGNFILTGTERMQQRPIGILVDAMKEIGADIHYDKKVGYPPLKIEGGLFQEKDRVKIKGNISSQYISALLLIAPALKKGLTLEIEGELTSRPYVSMTLDMLKSVGIQHEWKNNAIKIAPQAFEKQTIYVEPDWSAASYWYAIAALADANASIVLPGLRKNSLQGDIAIISIMEHFGVQSSFESDGLHLNKKVIGSDVSLFNFKECPDLAQTVVVVAAALKRDVSFTGLETLKIKETDRIAALQKEIAKFGAELIEDGDTYHLKTAQVYQPEEVTFDTYEDHRMAMAFAPLALVFDQIKIAEPQVVEKSYPDFWNHLQAQAFVIE
modifications: Sphingobacterium multivorum/faecium
notes: glyphosate-resistant EPSP synthase, predicted translation product of grg31, from strain ATX21318
For the molecule B1, the “Percentage of control (enzymatic activity at 37° C. relative to control at 4° C.)” value in data set [1] (0 hours at 37° C.) is 100%; in data set [1] (2 hours at 37° C.), 86%; in data set [1] (6 hours at 37° C.) it was 68%; in data set [1] (22 hours at 37° C.) it was 29%. Further, the “Percentage of Maximal Activity” value in data set [2] (10 ° C., 15 minutes incubation) was found to be 42%; in data set [2] (20 ° C., 15 minutes incubation), 62%; in data set [2] (30 ° C., 15 minutes incubation), 69%; in data set [2] (40 ° C., 15 minutes incubation), 80%; in data set [2] (50 ° C., 15 minutes incubation), 100%; in data set [2] (60 ° C., 15 minutes incubation) it was 96%. Further, the “Percentage of Maximal Activity” value was 67% in data set [2] (70 ° C.) and 36% in data set [2] (80 ° C.).
